Patent publication US20260201030A1 (EVOPOINT BIOSCIENCES, published 2026)
Each block holds one binder with its values, some of them ahead of it.

How the values were obtained:
human Claudin18.2 [1] = biological target: T1, human Claudin18.2 (human, UniProt P56856-2 1-261); assay: FACS on HEK293T-Claudin18.2 (human) cells
T1 construct: whole, on cells; also called CLDN18.2; HEK293T-Claudin18.2 (human)
Protocol: (§1) The affinity of the anti-human Claudin18.2 humanized antibodies was detected by flow cytometry. The experimental procedures were as follows: The adherent cultured HEK293T-Claudin18.2 (human), NUGC4-Claudin18.2 (human) and NUGC4 cells were digested, collected by centrifugation, and washed three times with pre-cooled PBS. The cells were resuspended in 1% BSA (in PBS) and added to a 96-well pointed bottom plate at 3×10⁵ cells/well, with a volume of 50 μL per well. Each test antibody was diluted with 1% BSA (in PBS) (starting at 100 μg/mL, diluted in a 3-fold gradient, for 10 concentration points). The test antibody subjected to gradient dilution was added to the cells at 50 μL/well, and the mixture was well mixed and incubated at 4° C. for 1 h. The cells were collected by centrifugation, washed three times with pre-cooled PBS, and resuspended in 50 μL of 1% BSA (in PBS). 1 μL of a fluorescent secondary antibody (Biolegend-410712) was added to each well, and the mixture was well mixed and incubated at 4° C. for 0.5 h. The cells were collected by centrifugation, washed three times with pre-cooled PBS, resuspended in 200 μL of PBS, and assayed on a machine.

human Claudin18.2 [2] = biological target: T1, human Claudin18.2; assay: cell-based ELISA on NUGC4-Claudin18.2 (human) cells
human Claudin18.2 [3] = biological target: T1, human Claudin18.2; assay: FACS on NUGC4-Claudin18.2 (human) cells
Protocol: as §1

human Claudin18.2 [4] = biological target: T1, human Claudin18.2; assay: cell-based or functional assay
human Claudin18.2 [5] = biological target: T1, human Claudin18.2; assay: cell-based ELISA on HEK293T-Claudin18.2 (human) cells
Protocol: The affinity of the anti-human Claudin18.2 murine monoclonal antibodies was evaluated by cell-based ELISA. The experimental procedures were as follows: The day before the experiment, HEK293T-Claudin18.2 (human) cells were plated in a 96-well plate at 5×10⁴ cells/well. On the day of the experiment, the supernatant was removed, the cells in each well were washed once with 300 μL of PBS, and 100 μL of 4% paraformaldehyde was added to each well for fixation at room temperature for 20 min. Paraformaldehyde was then removed, and the cells in each well were washed twice with 300 μL of PBS. 100 μL of 2% BSA (in PBS) was added to each well, and the mixture was blocked at 37° C. for 2 h. After removing the blocking solution, each antibody subjected to gradient dilution (diluted with 2% BSA (in PBS), starting at […], in a 3-fold gradient, for a total of 11 concentration points) was added to the plate at 100 μL/well, and the mixture was incubated at 37° C. for 2 h. The supernatant was removed, and the cells in each well were washed three times with 300 μL of PBST. […] The reaction was stopped by adding 50 μL of 2 N HCl to each well, and OD_{450 nm} values were read on a microplate reader (manufacturer: MD, model: SpectraMax). […]
The affinity of the anti-human Claudin18.2 humanized monoclonal antibodies was determined by cell-based ELISA. […]

human Claudin18.1 = biological target: T2, human Claudin18.1 (human, UniProt P56856 1-261); assay: FACS on HEK293T-Claudin18.1 (human) cells, antibody 50 µg/mL
T2 construct: whole, on cells; also called CLDN18.1; HEK293T-Claudin18.1 (human)
Protocol: The specificity of the anti-human Claudin18.2 humanized monoclonal antibodies was determined by flow cytometry (FACS). The experimental procedures were as follows: HEK293T-Claudin18.1 (human) cells were digested, collected by centrifugation, washed three times with pre-cooled PBS, resuspended in 1% BSA (in PBS), and added to a 96-well pointed bottom plate at 3×10⁵ cells/well. Each test antibody with a final concentration of 50 μg/mL was added, and the mixture was incubated at 4° C. for 1 h. The cells were washed three times with pre-cooled PBS, and then 1 μL of a fluorescent secondary antibody (APC: Biolegend-410712 or PE: BioLegend-410708) was added to each well. The mixture was incubated at 4° C. for 0.5 h, and the cells were washed three times with pre-cooled PBS, then resuspended, and assayed on a flow cytometer. For reference, anti-human Claudin18.1 positive control antibodies (positive control antibody-1 and positive control antibody-2) were included in the experiment.

human Claudin18.2 [6] = biological target: T1, human Claudin18.2; assay: cell-based ELISA (OD450) on NUGC4 cells (endogenous human Claudin18.2)
human Claudin18.2 [7] = biological target: T1, human Claudin18.2; assay: cell-based ELISA on NUGC4 cells (endogenous human Claudin18.2)
human Claudin18.2 [8] = biological target: T1, human Claudin18.2; assay: cell-based ELISA on L929-Claudin18.2 (human) cells
mouse Claudin18.2 = biological target: T3, mouse Claudin18.2 (mouse, UniProt P56857-3 1-264, limits assumed); assay: FACS on HEK293T-Claudin18.2 (mouse) cells
T3 construct: whole, on cells; also called HEK293T-Claudin18.2 (mouse)
Protocol: The mixture was incubated at 4° C. for 0.5 h, and the cells were washed three times with pre-cooled PBS, then resuspended, and assayed on a flow cytometer.

human Claudin18.2 [9] = biological target: T1, human Claudin18.2; assay: cell-based ELISA on L929-claudin 18.2 (human) and NUGC4 cells, ADC

T3 sequence (P56857 other isoform, or with tags, fused parts or gaps limits assumed): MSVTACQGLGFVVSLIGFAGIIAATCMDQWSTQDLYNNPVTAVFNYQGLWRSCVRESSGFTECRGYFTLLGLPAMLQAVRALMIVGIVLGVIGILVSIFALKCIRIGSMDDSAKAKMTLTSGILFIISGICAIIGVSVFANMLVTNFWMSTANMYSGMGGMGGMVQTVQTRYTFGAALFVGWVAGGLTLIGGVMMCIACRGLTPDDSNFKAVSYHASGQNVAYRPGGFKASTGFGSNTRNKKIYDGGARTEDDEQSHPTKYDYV

EC50 (human Claudin18.2 [1]): 0.292 µg/mL
Maximum signal value (human Claudin18.2 [1]): 114000
EC50 (human Claudin18.2 [2]): 0.108 µg/mL
EC50 (human Claudin18.2 [3]): 3.19 µg/mL
ADCC activity EC50 (Jurkat-NFAT-CD16a luciferase reporter, HEK293T-Claudin18.2 (human) target cells) (human Claudin18.2 [4]): 0.0465 µg/mL
EC50 (human Claudin18.2 [5]): 0.0112 µg/mL
Positive rate (%) (human Claudin18.1): 0.54%
Maximum signal value (human Claudin18.2 [6]): 0.304
EC50 (human Claudin18.2 [7]): 0.101 µg/mL
EC50 (human Claudin18.2 [8]): 0.0134 µg/mL
EC50 (mouse Claudin18.2): 0.941 µg/mL
B1: 25C7A5-HZ1 (antibody, human IgG1, kappa)
heavy: not shown
light: EIVLTQSPATLSLSPGERATLSCKASENVKTYVSWYQQKPGQSPRLLIYEASNRYTGVPARFSGSGSATDFTLTISSLEPEDFAVYFCGQTYSFPPTFGQGTKVEIKRTVAAPSVFIFPPSDEQLKSGTASVVCLLNNFYPREAKVQWKVDNALQSGNSQESVTEQDSKDSTYSLSSTLTLSKADYEKHKVYACEVTHQGLSSPVTKSFNRGEC
notes: Humanized IgG1/kappa
CDC activity EC50 (guinea pig serum killing, CCK8, HEK293T-Claudin18.2 (human) cells) (human Claudin18.2 [4]): 3.14 µg/mL

binding result (human Claudin18.2 [9]): binds
B2: ADC formed by conjugation of 25C7A5-HZ1 (antibody, human IgG1, kappa)
heavy: not shown
light: B1 light
modifications: toxin linker conjugated to cysteine sulfhydryl groups after TCEP reduction (positions not given); toxin linker conjugated to cysteine sulfhydryl groups after TCEP reduction (positions not given); DAR 6.82 (B82 batch) or 7.97 (B81 batch)
notes: also called conjugated 25C7A5-HZ1; 25C7A5-HZ1-B82

binding result (human Claudin18.2 [9]): binds
B3: ADC formed by conjugation of 25C7A5-HZ2 (antibody, human IgG1, kappa)
heavy: not shown
light: B1 light
modifications: toxin linker conjugated to cysteine sulfhydryl groups after TCEP reduction (positions not given); toxin linker conjugated to cysteine sulfhydryl groups after TCEP reduction (positions not given); DAR 7.10
notes: The label B82 is not explained; also called conjugated 25C7A5-HZ2; 25C7A5-HZ2-B82
